According to paper PMC10530651, “Mechanisms of Regulation of the CHRDL1 Gene by the TWIST2 and ADD1/SREBP1c Transcription Factors”:
Substitutions are numbered along the chain they refer to.

Assays:
TWIST2 [1] = target: T1, TWIST2 (Homo sapiens, UniProt Q8WVJ9 1-160); test: EMSA; EMSA: 20 mM HEPES pH 7.9, 60 mM KCl, 1 mM MgCl2, 0.5 mM DTT, 10% glycerol, 10 µL with 1-3 µL TnT lysate; competitor at least 50x molar excess; 6% native gel, 0.5X TBE, 4 °C; binding temperature not stated; settings: protein: ivt; tags: N-terminal Myc; chain copies: 2; label: 32P as probe; blunt
T1 sequence: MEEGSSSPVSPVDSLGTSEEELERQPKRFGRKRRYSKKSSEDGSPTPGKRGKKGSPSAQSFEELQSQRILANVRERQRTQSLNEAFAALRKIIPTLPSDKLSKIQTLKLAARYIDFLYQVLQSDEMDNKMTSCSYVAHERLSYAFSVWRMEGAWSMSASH

ADD1/SREBP1c [2] = target: T2, ADD1/SREBP1c (rat, UniProt P56720-1 1-403); test: as above; settings: protein: ivt; tags: C-terminal Myc/His; chain copies: 2; label: 32P as probe; blunt
T2 sequence: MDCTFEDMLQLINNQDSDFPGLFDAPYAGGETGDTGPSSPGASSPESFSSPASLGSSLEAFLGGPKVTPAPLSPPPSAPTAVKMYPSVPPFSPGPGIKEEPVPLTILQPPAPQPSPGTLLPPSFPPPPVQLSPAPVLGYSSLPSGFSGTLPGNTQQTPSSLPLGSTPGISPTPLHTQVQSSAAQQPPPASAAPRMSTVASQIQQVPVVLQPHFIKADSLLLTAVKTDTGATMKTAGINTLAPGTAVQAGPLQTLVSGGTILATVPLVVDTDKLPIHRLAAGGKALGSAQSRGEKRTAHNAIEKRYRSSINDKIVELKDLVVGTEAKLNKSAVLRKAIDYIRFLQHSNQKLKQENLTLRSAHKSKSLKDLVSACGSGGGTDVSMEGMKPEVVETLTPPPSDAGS

TWIST2 [3] = target: T1, TWIST2; test: EMSA; competition; EMSA: 20 mM HEPES pH 7.9, 60 mM KCl, 1 mM MgCl2, 0.5 mM DTT, 10% glycerol, 10 µL with 1-3 µL TnT lysate; competitor at least 50x molar excess; 6% native gel, 0.5X TBE, 4 °C; binding temperature not stated; settings: protein: ivt; tags: N-terminal Myc; chain copies: 2; label: 32P as probe; blunt
ADD1/SREBP1c [4] = target: T2, ADD1/SREBP1c; test: as above; settings: protein: ivt; tags: C-terminal Myc/His; chain copies: 2; label: 32P as probe; blunt
TWIST1 [5] = target: T3, TWIST1 (Homo sapiens, UniProt Q15672 1-202); test: EMSA; EMSA: 20 mM HEPES pH 7.9, 60 mM KCl, 1 mM MgCl2, 0.5 mM DTT, 10% glycerol, 10 µL with 1-3 µL TnT lysate; competitor at least 50x molar excess; 6% native gel, 0.5X TBE, 4 °C; binding temperature not stated; settings: protein: ivt; tags: Myc; chain copies: 2; label: 32P as probe; blunt
TWIST2 [6] = target: T1, TWIST2; test: competition; vs labeled CH2700EA; EMSA: 20 mM HEPES pH 7.9, 60 mM KCl, 1 mM MgCl2, 0.5 mM DTT, 10% glycerol, 10 µL with 1-3 µL TnT lysate; competitor at least 50x molar excess; 6% native gel, 0.5X TBE, 4 °C; binding temperature not stated; settings: protein: ivt; tags: N-terminal Myc; chain copies: 2; blunt
ADD1/SREBP1c [7] = target: T2, ADD1/SREBP1c; test: as above; settings: protein: ivt; tags: C-terminal Myc/His; chain copies: 2; blunt
TWIST2 [8] = target: T1, TWIST2; test: competition; vs labeled probe #5; EMSA: 20 mM HEPES pH 7.9, 60 mM KCl, 1 mM MgCl2, 0.5 mM DTT, 10% glycerol, 10 µL with 1-3 µL TnT lysate; competitor at least 50x molar excess; 6% native gel, 0.5X TBE, 4 °C; binding temperature not stated; settings: protein: ivt; tags: N-terminal Myc; chain copies: 2; blunt
TWIST1 [9] = target: T3, TWIST1; test: as above; settings: protein: ivt; tags: Myc; chain copies: 2; blunt

B1: CH2700EA (dsDNA)
DNA 1: TGGTGGTGGTCACATGAATATACACATGCGATAAAATT
DNA 2: AATTTTATCGCATGTGTATATTCATGTGACCACCACCA
B1: binds (TWIST2 [1]); binds (ADD1/SREBP1c [2]).

B2: CH2600TWI (dsDNA)
DNA 1: TATATACACAGGCAAATGAGTGCATATAAA
DNA 2: TTTATATGCACTCATTTGCCTGTGTATATA
B2: no binding (TWIST2 [3]); no binding (ADD1/SREBP1c [4]); no binding (TWIST1 [5]).

B3: CH2700EMAW (dsDNA)
DNA 1: B1 DNA 1 with A12G, T15C
DNA 2: B1 DNA 2 with A24G, T27C
B3: binds (TWIST2 [6]); binds (ADD1/SREBP1c [7]).

B4: CH2700EWAM (dsDNA)
DNA 1: B1 DNA 1 with A24G, T27C
DNA 2: B1 DNA 2 with A12G, T15C
B4: binds (ADD1/SREBP1c [7]).

B5: SP1 oligo (dsDNA)
DNA 1: ATTCGATCGGGGCGGGGCGAGC
DNA 2: GCTCGCCCCGCCCCGATCGAAT
B5: no binding (TWIST2 [8]); no binding (TWIST1 [9]).
